Laboratory results taken from paper PMC10326835 (microLife, 2023).
Where two headings read alike, the source gives them in different places.

T1: RelA (Escherichia coli, UniProt P0AG20)
T1 sequence (P0AG20 1-744): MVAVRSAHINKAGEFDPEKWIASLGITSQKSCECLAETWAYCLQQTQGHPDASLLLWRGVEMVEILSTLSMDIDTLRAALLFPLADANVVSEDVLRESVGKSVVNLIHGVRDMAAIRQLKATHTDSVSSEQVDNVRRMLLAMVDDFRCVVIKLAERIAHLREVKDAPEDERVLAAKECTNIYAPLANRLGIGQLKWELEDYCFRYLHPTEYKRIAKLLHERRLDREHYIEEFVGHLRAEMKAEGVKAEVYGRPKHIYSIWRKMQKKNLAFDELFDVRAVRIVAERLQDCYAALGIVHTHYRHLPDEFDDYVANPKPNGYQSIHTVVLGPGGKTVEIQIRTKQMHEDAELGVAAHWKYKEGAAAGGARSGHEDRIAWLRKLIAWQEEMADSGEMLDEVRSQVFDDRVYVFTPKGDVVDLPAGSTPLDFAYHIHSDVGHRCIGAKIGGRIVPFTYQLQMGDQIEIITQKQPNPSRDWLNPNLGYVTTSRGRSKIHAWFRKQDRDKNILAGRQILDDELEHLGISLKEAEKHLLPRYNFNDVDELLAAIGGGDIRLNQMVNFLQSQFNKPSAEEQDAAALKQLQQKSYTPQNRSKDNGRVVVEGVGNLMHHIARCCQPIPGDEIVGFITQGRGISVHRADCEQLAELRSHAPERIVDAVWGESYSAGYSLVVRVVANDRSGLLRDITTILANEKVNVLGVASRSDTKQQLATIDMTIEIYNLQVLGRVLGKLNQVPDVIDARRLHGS

T2: ^strepLpxA (E. coli, UniProt P0A722 1-262)
T2 sequence: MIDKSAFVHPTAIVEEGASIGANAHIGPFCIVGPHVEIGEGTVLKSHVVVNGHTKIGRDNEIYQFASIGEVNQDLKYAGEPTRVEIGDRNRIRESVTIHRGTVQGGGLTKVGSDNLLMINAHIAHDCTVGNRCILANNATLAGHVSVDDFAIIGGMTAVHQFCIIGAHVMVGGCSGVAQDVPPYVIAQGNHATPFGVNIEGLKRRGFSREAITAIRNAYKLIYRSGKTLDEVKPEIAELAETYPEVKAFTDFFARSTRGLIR


Tests used:
SpeF = SpeF (Escherichia coli, UniProt P24169); experiment: DRaCALA with […]-ppGpp in overexpression lysate; type: cell-based
ObgE = ObgE (Escherichia coli, UniProt P42641); experiment: DRaCALA with […]-ppGpp in overexpression lysate; type: cell-based
RelA = molecular target: T1, RelA; experiment: DRaCALA with […]-ppGpp in overexpression lysate; type: cell-based
^strepLpxA [1] = molecular target: T2, ^strepLpxA; experiment: MST
^strepLpxA [2] = molecular target: T2, ^strepLpxA; experiment: MST; remark: listed apart in the source
purified protein = substrate: CC(=O)N[C@H]1[C@@H](OP(=O)(O)OP(=O)(O)OC[C@H]2O[C@@H](n3ccc(=O)[nH]c3=O)[C@H](O)[C@@H]2O)O[C@H](CO)[C@@H](O)[C@@H]1O; experiment: purified protein

Sequence of ObgE (P42641 whole entry): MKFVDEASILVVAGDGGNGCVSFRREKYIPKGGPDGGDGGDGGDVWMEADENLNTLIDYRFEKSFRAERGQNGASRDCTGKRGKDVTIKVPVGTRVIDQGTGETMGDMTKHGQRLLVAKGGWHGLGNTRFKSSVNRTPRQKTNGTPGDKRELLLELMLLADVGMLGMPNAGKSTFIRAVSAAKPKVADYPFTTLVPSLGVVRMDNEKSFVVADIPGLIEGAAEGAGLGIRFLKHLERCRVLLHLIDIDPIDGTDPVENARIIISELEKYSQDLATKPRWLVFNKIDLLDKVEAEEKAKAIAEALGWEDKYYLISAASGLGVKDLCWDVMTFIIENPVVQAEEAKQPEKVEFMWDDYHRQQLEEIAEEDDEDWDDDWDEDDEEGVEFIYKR
Sequence of SpeF (P24169 whole entry): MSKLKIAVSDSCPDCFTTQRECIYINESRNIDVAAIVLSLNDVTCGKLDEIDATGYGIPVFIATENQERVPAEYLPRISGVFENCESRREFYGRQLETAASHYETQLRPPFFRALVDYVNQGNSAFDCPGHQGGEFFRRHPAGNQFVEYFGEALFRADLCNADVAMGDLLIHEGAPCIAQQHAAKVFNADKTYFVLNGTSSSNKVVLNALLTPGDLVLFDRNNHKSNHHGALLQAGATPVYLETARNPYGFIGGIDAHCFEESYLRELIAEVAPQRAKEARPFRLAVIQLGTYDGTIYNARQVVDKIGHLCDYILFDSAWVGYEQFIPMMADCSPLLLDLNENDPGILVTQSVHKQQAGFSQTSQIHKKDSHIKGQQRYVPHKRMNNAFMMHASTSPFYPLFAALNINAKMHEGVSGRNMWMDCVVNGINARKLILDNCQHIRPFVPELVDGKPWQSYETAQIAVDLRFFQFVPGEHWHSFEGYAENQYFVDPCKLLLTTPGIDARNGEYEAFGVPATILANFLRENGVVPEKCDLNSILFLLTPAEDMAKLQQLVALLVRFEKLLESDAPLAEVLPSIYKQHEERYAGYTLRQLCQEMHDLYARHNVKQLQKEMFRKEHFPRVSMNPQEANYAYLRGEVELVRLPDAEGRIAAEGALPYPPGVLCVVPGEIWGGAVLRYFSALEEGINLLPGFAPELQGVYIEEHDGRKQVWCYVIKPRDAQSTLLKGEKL

| Molecule | binding result (^strepLpxA [1]) | binding result (^strepLpxA [2]) | other results |
| --- | --- | --- | --- |
| Nc1nc2c(ncn2[C@@H]2O[C@H](COP(=O)(O)OP(=O)(O)O)[C@@H](OP(=O)(O)OP(=O)(O)O)[C@H]2O)c(=O)[nH]1 [ppGpp] |  |  | % relative to RelA (SpeF): 73 ± 12 % relative to RelA; % relative to RelA (ObgE): 86 ± 12 % relative to RelA; % (reference binding) (RelA): 100 % (reference binding) |
| ^His-SUMORnhA (enzyme, E. coli, UniProt P0A7Y4 1-155, looked up, fluorescently labeled with the His-Tag Labeling Kit RED-tris-NTA) MLKQVEIFTDGSCLGNPGPGGYGAILRYRGREKTFSAGYTRTTNNRMELMAAIVALEALKEHCEVILSTDSQYVRQGITQWIHNWKKRGWKTADKKPVKNVDLWQRLDAALGQHQIKWEWVKGHAGHPENERCDELARAAAMNPTLEDTGYQVEV | binds |  |  |
| ^HisRnhA (enzyme, E. coli, UniProt P0A7Y4 1-155, looked up, fluorescently labeled with the His-Tag Labeling Kit RED-tris-NTA) MLKQVEIFTDGSCLGNPGPGGYGAILRYRGREKTFSAGYTRTTNNRMELMAAIVALEALKEHCEVILSTDSQYVRQGITQWIHNWKKRGWKTADKKPVKNVDLWQRLDAALGQHQIKWEWVKGHAGHPENERCDELARAAAMNPTLEDTGYQVEV |  | binds |  |
| LpxA (Escherichia coli K-12) (protein) MIDKSAFVHPTAIVEEGASIGANAHIGPFCIVGPHVEIGEGTVLKSHVVVNGHTKIGRDNEIYQFASIGEVNQDLKYAGEPTRVEIGDRNRIRESVTIHRGTVQGGGLTKVGSDNLLMINAHIAHDCTVGNRCILANNATLAGHVSVDDFAIIGGMTAVHQFCIIGAHVMVGGCSGVAQDVPPYVIAQGNHATPFGVNIEGLKRRGFSREAITAIRNAYKLIYRSGKTLDEVKPEIAELAETYPEVKAFTDFFARSTRGLIR |  |  | Km (purified protein): 494 µM |
| ^HisRnhB (enzyme, E. coli, UniProt P10442 1-198, looked up, fluorescently labeled with the His-Tag Labeling Kit RED-tris-NTA) MIEFVYPHTQLVAGVDEVGRGPLVGAVVTAAVILDPARPIAGLNDSKKLSEKRRLALYEEIKEKALSWSLGRAEPHEIDELNILHATMLAMQRAVAGLHIAPEYVLIDGNRCPKLPMPAMAVVKGDSRVPEISAASILAKVTRDAEMAALDIVFPQYGFAQHKGYPTAFHLEKLAEHGATEHHRRSFGPVKRALGLAS |  | binds |  |
| ^His-SUMORnhB (enzyme, E. coli, UniProt P10442 1-198, looked up, fluorescently labeled with the His-Tag Labeling Kit RED-tris-NTA) MIEFVYPHTQLVAGVDEVGRGPLVGAVVTAAVILDPARPIAGLNDSKKLSEKRRLALYEEIKEKALSWSLGRAEPHEIDELNILHATMLAMQRAVAGLHIAPEYVLIDGNRCPKLPMPAMAVVKGDSRVPEISAASILAKVTRDAEMAALDIVFPQYGFAQHKGYPTAFHLEKLAEHGATEHHRRSFGPVKRALGLAS | binds |  |  |
